In US20260265389A1 (CANTAI THERAPEUTICS, published 2026):

T1: IL-23 heterodimer (IL-23α & IL-12β) (Homo sapiens (Human), UniProt Q9NPF7 20-189; P29460 23-328)
T1 construct: also called heteromeric IL-23
T1 sequence 1: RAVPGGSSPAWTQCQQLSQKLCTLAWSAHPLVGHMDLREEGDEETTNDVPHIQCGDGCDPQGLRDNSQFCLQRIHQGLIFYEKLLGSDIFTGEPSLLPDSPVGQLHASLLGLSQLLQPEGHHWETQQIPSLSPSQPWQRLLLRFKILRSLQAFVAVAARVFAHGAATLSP
T1 sequence 2: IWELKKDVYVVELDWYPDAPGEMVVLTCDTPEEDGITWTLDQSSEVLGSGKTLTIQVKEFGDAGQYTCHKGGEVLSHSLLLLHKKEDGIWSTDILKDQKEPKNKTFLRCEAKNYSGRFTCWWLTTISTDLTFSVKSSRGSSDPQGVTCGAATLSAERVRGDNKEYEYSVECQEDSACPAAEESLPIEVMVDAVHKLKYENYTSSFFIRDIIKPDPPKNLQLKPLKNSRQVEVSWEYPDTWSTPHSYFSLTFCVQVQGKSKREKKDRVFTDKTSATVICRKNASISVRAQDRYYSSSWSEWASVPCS

T2: biotinylated recombinant human TL1A (human, UniProt O95150 72-251, limits assumed, biotinylated (site not stated))
T2 sequence: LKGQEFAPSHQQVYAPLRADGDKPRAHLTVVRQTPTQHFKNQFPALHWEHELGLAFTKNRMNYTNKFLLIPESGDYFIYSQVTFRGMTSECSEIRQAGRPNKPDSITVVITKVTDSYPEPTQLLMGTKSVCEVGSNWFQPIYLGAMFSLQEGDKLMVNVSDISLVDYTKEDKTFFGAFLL

T3: monomeric TL1A (human, UniProt O95150 72-251, limits assumed)
T3 construct: also called TL1A monomer
T3 sequence: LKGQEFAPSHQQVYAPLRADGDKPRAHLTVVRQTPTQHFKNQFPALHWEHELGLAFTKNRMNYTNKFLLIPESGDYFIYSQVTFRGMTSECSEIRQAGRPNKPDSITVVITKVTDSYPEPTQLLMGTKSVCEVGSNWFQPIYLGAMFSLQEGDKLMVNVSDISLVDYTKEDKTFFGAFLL


What was measured:
[1] = target: T1, IL-23 heterodimer (IL-23α & IL-12β); assay: BLI (Octet); how IL-23 was offered is not described
[2] = target: T2, biotinylated recombinant human TL1A; assay: BLI (Octet); by Example 12 biotinylated recombinant human TL1A on streptavidin sensors, dipped into the bispecific antibody for 0-300 s; the sheet does not name the loaded protein or the antibody concentration
Experimental: Kinetic determination and assessment of pH dependency was performed on Octet BLI platform. Briefly, knob-in-hole bispecific antibodies that were prepared according to method described in Example 10 were used for this assay. Briefly, biotinylated recombinant human TL1A was diluted to 7.5 nM in kinetics buffer (1×PBS pH 7.4, 0.1% BSA, 0.05% Tween20, 0.05% sodium azide) and loaded onto streptavidin sensors for a period of 5 minutes. Sensors were then baselined in kinetics buffer before being dipped into bispecific antibodies diluted to varying concentrations, with two-fold serial dilutions for a 5-minute association step, followed by a 15-minute dissociation step. Top concentrations were determined based on approximate KD determined during a scouting experiment. Referencing was performed using a loaded sensor that was dipped into buffer as opposed to antibody, as well as unloaded sensors dipped into antibody. Then, data was aligned and fitted.

monomeric TL1A = target: T3, monomeric TL1A; assay: SPR, antibody captured by anti-human IgG-Fc, TL1A monomer as analyte, pH 7.4; pH 7.4, monomeric TL1A as analyte
Experimental: Binding kinetic assays were performed for determining pH dependent binding activity of a lead TL1A binding antibody candidate, as identified in Example 3, and 7 different variants thereof using surface plasma resonance (SPR) spectroscopy. Each TL1A binding candidate comprised a VH sequence that comprised at least one modification in CDR or framework region of variable region of the VH sequence. Briefly, an amine-coupled anti-human IgG-Fc specific polyclonal antibody was immobilized on a SPR sensor chip. All TL1A binding antibody candidates were expressed at 1 mL scale in chinese hamster ovary (CHO) cells for 6 days, and supernatant was cleared of cells by centrifugation. To form a captured antibody array, TL1A binding antibody candidates were batch diluted to approximately 1.7-13.3 nM (either after Protein A purification or directly from CHO supernatant) and injected onto the chip. Non-regenerative kinetics were measured by injecting TL1A monomer starting at a concentration of 2.57E-10 M, with 6-fold increase in concentration up to 3.33E-07 M at pH 7.4 and 5.8, respectively. Likewise, non-regenerative kinetics were also measured for TL1A trimer starting at a concentration of 2.57E-10 M, with 6-fold increase in concentration up to 3.33E-07 M at pH 7.4. Each analyte injection flowed over the array at […] for a 5-minute association phase, followed by a 10-minute buffer dissociation phase. Binding was detected and relative capture response units (RU) were collected for each antibody on the surface.

binding result [1] | binding result [2] | Kd (monomeric TL1A) [nM] | Binder
binds | binds | – | bispecific antibody candidate II-1 (bispecific antibody, IgG1, V domains shown, hIgG1, 1:1 knob-in-hole; also called 11-1; knob-in-hole bispecific antibody) VH 1: QVQLVQSGAEVKKPGSSVKVSCKASGGTFTIYAISWVRQAPGQGLEWMGGILPIFGTGHYVQKFQGRVTITADESTSTSYMELSSLRSEDTAVYYCAREPENWGQGTLVTVSS VH 2: QVQLQESGPGLVEPSGTLSLTCAVSGGSISSRNWWSWVRQPPGKGLEWIGEIYHSGSTNYNPSLKSRVTISVDKSKNQFSLNLNSVTAADTAVYYCARDNDILTGYFDGYFDYWGQGTLVTVSS VL: not shown
binds | binds | – | bispecific antibody candidate II-2 (bispecific antibody, IgG1, V domains shown, hIgG1, 1:1 knob-in-hole; also called 11-2; knob-in-hole bispecific antibody) VH 1: QVQLVQSGAEVKKPGASVKVSCTASGDAFTGDSIHWVRQAPGQGLEWMGWITPNSGGTSYAQRFQGRVTLTRDTSISTVYMDLRRLRSDDTAVYFCASGLTVPFDYWGQGTLVTVSS VH 2: QVQLQESGPGLVEPSGTLSLTCAVSGGSISSRNWWSWVRQPPGKGLEWIGEIYHSGSTNYNPSLKSRVTISVDKSKNQFSLNLNSVTAADTAVYYCARDNDILTGYFDGYFDYWGQGTLVTVSS VL: not shown
– | – | 5.53 | TL1A binding antibody candidate 2 of TABLE 47 (VH SEQ ID NO: 903, VL SEQ ID NO: 1768) (antibody, V domains shown, It was expressed in CHO cells and captured by an anti-human IgG-Fc antibody (human IgG Fc)) VH: QVQLQESGPGLVKPSGTLSLTCAVSGGSISSRNWWSWVRQPPGKGLEWIGEIYHSGSTNYNPSLKSRVTISVDKSKNQFSLNLNSVTAADTAVYYCARDNDILDGYFDGYFDYWGQGTLVTVSS VL: not shown
– | – | 4.57 | TL1A binding antibody candidate 7 of TABLE 47 (VH SEQ ID NO: 909, VL SEQ ID NO: 1768) (antibody, V domains shown, It was expressed in CHO cells and captured by an anti-human IgG-Fc antibody (human IgG Fc)) VH: QVQLQESGPGLVKPSGTLSLTCAVSGGSISSRNWWSWVRQPPGKGLEWIGEIYHSGSTNYNPSLKSRVTISVDKSKNQFSLNLKSVTAADTAVYYCARDNDILTGYFDGYFDYWGQGTLVTVSS VL: not shown
– | – | 6.46 | TL1A binding antibody candidate 1 of TABLE 47 (VH SEQ ID NO: 902, VL SEQ ID NO: 1768) (antibody, V domains shown, It was expressed in CHO cells and captured by an anti-human IgG-Fc antibody (human IgG Fc)) VH: QVQLQESGPGLVKPSGTLSLTCAVSGGSISSRNWWSWVRQPPGKGLEWIGEIYHSGSTNYNPSLKSRVIISVDKSKNQFSLNLNSVTAADTAVYYCARDNDILTGYFDGYFDYWGQGTLVTVSS VL: not shown
– | – | 9.66 | TL1A binding antibody candidate 8 of TABLE 47 (VH SEQ ID NO: 933, VL SEQ ID NO: 1768) (antibody, V domains shown, It was expressed in CHO cells and captured by an anti-human IgG-Fc antibody (human IgG Fc)) VH: QVQLQESGPGLVEPSGTLSLTCAVSGGSISSRNWWSWVRQPPGKGLEWIGEIYHSGSTNYNPSLKSRVTISVDKSKNQFSLNLNSVTAADTAVYYCARDNDILTGYFDGYFDYWGQGTLVTVSS VL: not shown
– | – | 5.19 | TL1A binding antibody candidate 5 of TABLE 47 (VH SEQ ID NO: 907, VL SEQ ID NO: 1768) (antibody, V domains shown, It was expressed in CHO cells and captured by an anti-human IgG-Fc antibody (human IgG Fc)) VH: QVQLQESGPGLVKPSGTLSLTCAVSGGSITSRNWWSWVRQPPGKGLEWIGEIYHSGSTNYNPSLKSRVTISVDKSKNQFSLNLNSVTAADTAVYYCARDNDILTGYFDGYFDYWGQGTLVTVSS VL: not shown
– | – | 3.05 | TL1A binding antibody candidate 6 of TABLE 47 (VH SEQ ID NO: 908, VL SEQ ID NO: 1768) (antibody, V domains shown, It was expressed in CHO cells and captured by an anti-human IgG-Fc antibody (human IgG Fc)) VH: QVQLQESGPGLVKPSGTLSLTCAVSGGSISSRNWWSWVRQPPGKGLEWIGEIYHSGSTNYNPSLKSRVTISVDKSKNQFSLNVNSVTAADTAVYYCARDNDILTGYFDGYFDYWGQGTLVTVSS VL: not shown
